Laboratory results published in publication PMC6224509 (Nature Communications, 2018).

Tests used:
[1] = target: T1, human 4-1BB residues 24–186, wild type, His–Avi (human, UniProt Q07011); experiment: cell-based or functional assay
[2] = target: T2, human 4-1BB residues 24–186 M101R, His–Avi (Homo sapiens, UniProt Q07011, M101R); experiment: SPR; binding kinetics and affinities, monovalent binding of utomilumab and urelumab to wild type and mutant h4-1BB (Supplementary Figure 8); who was immobilised is not given in the source; settings: both partners purified
T2 construct: human 4-1BB (CD137, TNFRSF9), residues 24-186, M101R; source: HEK cells, transfected, secreted, purified (NiExcel, Superdex 200); not shown: His8, C-terminal, kept

[3] = target: T1, human 4-1BB residues 24–186, wild type, …; experiment: as above; settings: both partners purified
[4] = target: T3, human 4-1BB residues 24–186 I132R, His–Avi (Homo sapiens, UniProt Q07011, I132R); experiment: as above; settings: both partners purified
T3 construct: human 4-1BB (CD137, TNFRSF9), residues 24-186, I132R; source: HEK cells, transfected, secreted, purified (NiExcel, Superdex 200); not shown: His8, C-terminal, kept
T3 sequence (Q07011 24-186 I132R): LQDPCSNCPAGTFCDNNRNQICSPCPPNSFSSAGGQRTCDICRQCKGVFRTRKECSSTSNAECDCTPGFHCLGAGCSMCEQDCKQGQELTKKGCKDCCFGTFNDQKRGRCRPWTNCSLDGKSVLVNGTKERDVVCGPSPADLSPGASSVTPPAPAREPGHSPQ

T1 sequence (Q07011 24-186): as the sequence (Q07011 24-186 I132R) above, with R109I counted along it
T2 sequence (Q07011 24-186 M101R): as the sequence (Q07011 24-186 I132R) above, with M78R, R109I counted along it

Row | NF-ĸB luciferase reporter in h4-1BB-expressing HEK293 cells, fold induction over unstimulated cells, cross-linked by Pfeiffer cells (FcγRIIB), max 250 nM [1] | NF-ĸB luciferase reporter in h4-1BB-expressing HEK293 cells, fold induction over unstimulated cells, no cross-linking, max 250 nM [1] | Kd [2] | Kd [3] | Kd [4] | Binder
1 | 2.24 fold | 1.99 fold | – | – | – | urelumab (fully human IgG4 mAb) (antibody, V domains shown) VH: QVQLQQWGAGLLKPSETLSLTCAVYGGSFSGYYWSWIRQSPEKGLEWIGEINHGGYVTYNPSLESRVTISVDTSKNQFSLKLSSVTAADTAVYYCARDYGPGNYDWYFDLWGRGTLVTVSS VL: EIVLTQSPATLSLSPGERATLSCRASQSVSSYLAWYQQKPGQAPRLLIYDASNRATGIPARFSGSGSGTDFTLTISSLEPEDFAVYYCQQRSNWPPALTFGGGTKVEIK
2 | – | – | 16 nM | 22 nM | 18 nM | urelumab Fab (Fab, V domains shown, urelumab heavy chain Fab region; urelumab kappa light chain (captured on an anti-human kappa surface); also called BMS-663513 (Fab); URE-Fab) VH: QVQLQQWGAGLLKPSETLSLTCAVYGGSFSGYYWSWIRQSPEKGLEWIGEINHGGYVTYNPSLESRVTISVDTSKNQFSLKLSSVTAADTAVYYCARDYGPGNYDWYFDLWGRGTLVTVSS VL: EIVLTQSPATLSLSPGERATLSCRASQSVSSYLAWYQQKPGQAPRLLIYDASNRATGIPARFSGSGSGTDFTLTISSLEPEDFAVYYCQQRSNWPPALTFGGGTKVEIK
